Measurements published in patent US20240010749A1 (Merck KGaA, published 2024).

T1: human CEACAM5 expressed on cancer cell lines (MKN-45, NCI-H441, SNU-16, SK-CO-1, LS174T) (human, UniProt P06731 35-685)
T1 construct: Endogenous CEACAM5 of human cancer cell lines; the cell line is named under assay or readout; also called CEACAM5-positive cell lines; MKN45 cell line expressing human CEACAM5
T1 sequence: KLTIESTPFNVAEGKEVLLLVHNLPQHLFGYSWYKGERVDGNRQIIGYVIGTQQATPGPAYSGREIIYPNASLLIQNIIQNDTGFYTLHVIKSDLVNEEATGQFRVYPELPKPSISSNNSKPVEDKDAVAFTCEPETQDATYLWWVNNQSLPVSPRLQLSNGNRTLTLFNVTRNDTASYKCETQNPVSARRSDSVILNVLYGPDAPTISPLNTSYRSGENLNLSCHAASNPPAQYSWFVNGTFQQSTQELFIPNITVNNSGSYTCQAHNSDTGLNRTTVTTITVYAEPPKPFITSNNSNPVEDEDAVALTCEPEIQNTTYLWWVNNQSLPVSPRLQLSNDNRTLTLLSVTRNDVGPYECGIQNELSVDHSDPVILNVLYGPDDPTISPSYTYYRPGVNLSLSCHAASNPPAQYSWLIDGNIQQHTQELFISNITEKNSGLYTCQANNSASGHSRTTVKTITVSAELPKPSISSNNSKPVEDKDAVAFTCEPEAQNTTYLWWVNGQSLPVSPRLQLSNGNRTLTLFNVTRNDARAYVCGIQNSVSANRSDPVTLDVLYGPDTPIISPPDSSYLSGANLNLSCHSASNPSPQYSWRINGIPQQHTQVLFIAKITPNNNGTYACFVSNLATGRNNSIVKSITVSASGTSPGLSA


Experiments:
[1] = biological target: T1, human CEACAM5 expressed on cancer cell …; assay: cell binding on MKN45 cells, average of several experiments
[2] = biological target: T1, human CEACAM5 expressed on cancer cell …; assay: cell-based or functional assay
[3] = biological target: T1, human CEACAM5 expressed on cancer cell …; assay: cell-based or functional assay; remark: listed apart in the source

Row | Binder | EC50 [1] [nM] | IC50 [M], cell viability (CellTiter-Glo, 6 days), LS174T [2] [M] | IC50 [M], cell viability (CellTiter-Glo, 6 days), MKN-45 [2] [M] | IC50 [M], cell viability (CellTiter-Glo, 6 days), SK-CO-1 [2] [M] | IC50 [M], cell viability (CellTiter-Glo, 6 days), SNU-16 [2] [M] | fold higher potency than ADC SAR DM4 against SK-CO-1 cancer cells (cell viability) [3] [fold]
1 | ADC1 (mAb1-glucuronid-exatecan) (other, exatecan attached through the glucuronide linker of DL1 (maleimide) to cysteines of reduced interchain disulfides; DAR 7.9) heavy: EVQLQESGPGLVKPSQTLSLTCTVSDGSVSRGGYYLTWIRQHPGKGLEWIGYIYYSGSTYFNPSLRSRVTMSVDTSKNQFSLKLSSVTAADTAVYYCARGIAVAPFDYWGQGTLVTVSSASTKGPSVFPLAPSSKSTSGGTAALGCLVKDYFPEPVTVSWNSGALTSGVHTFPAVLQSSGLYSLSSVVTVPSSSLGTQTYICNVNHKPSNTKVDKRVEPKSCDKTHTCPPCPAPPVAGPSVFLFPPKPKDTLMISRTPEVTCVVVDVSHEDPEVKFNWYVDGVEVHNAKTKPREEQYNSTYRVVSVLTVLHQDWLNGKEYKCKVSNKALPSSIEKTISKAKGQPREPQVYTLPPSREEMTKNQVSLTCLVKGFYPSDIAVEWESNGQPENNYKTTPPVLDSDGSFFLYSKLTVDKSRWQQGNVFSCSVMHEALHNHYTQKSLSLSPG light: not shown | – | 3.8e-10 | 6.2e-10 | 8.5e-11 | 3.2e-10 | 2.9
2 | ADC2 (mAb1-AAN-exatecan) (other, exatecan attached through the legumain-cleavable Ala-Ala-Asn linker of DL2 (maleimide) to cysteines of reduced interchain disulfides; DAR 7.6) heavy: EVQLQESGPGLVKPSQTLSLTCTVSDGSVSRGGYYLTWIRQHPGKGLEWIGYIYYSGSTYFNPSLRSRVTMSVDTSKNQFSLKLSSVTAADTAVYYCARGIAVAPFDYWGQGTLVTVSSASTKGPSVFPLAPSSKSTSGGTAALGCLVKDYFPEPVTVSWNSGALTSGVHTFPAVLQSSGLYSLSSVVTVPSSSLGTQTYICNVNHKPSNTKVDKRVEPKSCDKTHTCPPCPAPPVAGPSVFLFPPKPKDTLMISRTPEVTCVVVDVSHEDPEVKFNWYVDGVEVHNAKTKPREEQYNSTYRVVSVLTVLHQDWLNGKEYKCKVSNKALPSSIEKTISKAKGQPREPQVYTLPPSREEMTKNQVSLTCLVKGFYPSDIAVEWESNGQPENNYKTTPPVLDSDGSFFLYSKLTVDKSRWQQGNVFSCSVMHEALHNHYTQKSLSLSPG light: not shown | – | 2.8e-10 | 4.7e-10 | 6.9e-11 | 2.8e-10 | 2.7

The next lines start with results.

Row | EC50 [1] [nM] | Binder | IC50 [M], cell viability (CellTiter-Glo, 6 days), LS174T [2] [M] | IC50 [M], cell viability (CellTiter-Glo, 6 days), MKN-45 [2] [M] | IC50 [M], cell viability (CellTiter-Glo, 6 days), SK-CO-1 [2] [M] | IC50 [M], cell viability (CellTiter-Glo, 6 days), SNU-16 [2] [M] | fold higher potency than ADC SAR DM4 against SK-CO-1 cancer cells (cell viability) [3] [fold]
3 | 16 | hmn-14 (antibody, human IgG1, kappa, V domains shown, Known comparator antibody, human IgG; also called labetuzumab) VH: EVQLVESGGGVVQPGRSLRLSCSASGFDFTTYWMSWVRQAPGKGLEWIGEIHPDSSTINYAPSLKDRFTISRDNAKNTLFLQMDSLRPEDTGVYFCASLYFGFPWFAYWGQGTPVTVSS VL: DIQLTQSPSSLSASVGDRVTITCKASQDVGTSVAWYQQKPGKAPKLLIYWTSTRHTGVPSRFSGSGSGTDFTFTISSLQPEDIATYYCQQYSLYRSFGQGTKVEIKR | – | – | – | – | –
4 | 10.4 | mAb1 (antibody, human IgG1, kappa, Labelled with pHrodo in the internalization assay; also called so8G4) heavy: EVQLQESGPGLVKPSQTLSLTCTVSDGSVSRGGYYLTWIRQHPGKGLEWIGYIYYSGSTYFNPSLRSRVTMSVDTSKNQFSLKLSSVTAADTAVYYCARGIAVAPFDYWGQGTLVTVSSASTKGPSVFPLAPSSKSTSGGTAALGCLVKDYFPEPVTVSWNSGALTSGVHTFPAVLQSSGLYSLSSVVTVPSSSLGTQTYICNVNHKPSNTKVDKRVEPKSCDKTHTCPPCPAPPVAGPSVFLFPPKPKDTLMISRTPEVTCVVVDVSHEDPEVKFNWYVDGVEVHNAKTKPREEQYNSTYRVVSVLTVLHQDWLNGKEYKCKVSNKALPSSIEKTISKAKGQPREPQVYTLPPSREEMTKNQVSLTCLVKGFYPSDIAVEWESNGQPENNYKTTPPVLDSDGSFFLYSKLTVDKSRWQQGNVFSCSVMHEALHNHYTQKSLSLSPG light: not shown | – | – | – | – | –
